Drawing on patent publication US20150368357A1, this text covers MFI for one substance.

Assay [1] deals with HER2 (Human Epidermal Growth Factor Receptor 2) expressed on SK-BR-3 cells (human) (UniProt P04626). Put plainly: flow cytometry, SK-BR-3 cells; mAb 0.4 ng/ml as headed. For orientation: A flow cytometer gives signals particle by particle.
The target is the same in assay [2]. Put plainly: flow cytometry, SK-BR-3 cells; mAb 50 ng/ml as headed.
For assay [3] the target is unchanged. Put plainly: flow cytometry, SK-BR-3 cells; mAb 0.2 ng/ml as headed.

“Anti-idiotypic FVIII (a chimeric anti-Factor VIII antibody produced by rat hybridoma YB2/0)”: the MFI came out at 0 MFI in assay [1], 16 MFI in assay [2] and 0 MFI in assay [3].
